The record followed here is US20030235577A1, “Methods and compositions for preventing and treating microbial infections” (priority 2002, published 2003).

One data set concerns S. aureus. Put plainly: In vitro antimicrobial activity, co-incubation with S. aureus in 5% LB and CFU count. Format: cell-based, Staphylococcus aureus. Particulars: for direct antimicrobial activity: S. aureus, similar doses and conditions as full-length MMP-12; for antimicrobial activity after heat denaturation: heat denaturation / heat inactivation; for antimicrobial activity after enzymatic inhibition: inhibited with hydroxamic acid, an MMP inhibitor. As to the method:
S. aureus co-culture was incubated for 60 minutes with doses of MMP-12 C-terminal. Aliquots of cultures were diluted in PBS at 1:10 and 1:100 dilution. Dilutions were plated on LB agar plates for 18 hour incubation at 37° C. Controls consisted of column fractions that lacked MMP-12 carboxy terminal determined by immunoblotting.
(§1) MMP-12's mechanism of action as a host defense protein was investigated. To test for direct activity, functional full-length recombinant human MMP-12 was incubated with S. aureus in a 5% LB culture. […] MMP-12 enzymatic activity was not required for this antimicrobial effect.
(§2) Mid-log phase bacteria (10^5) were incubated in the absence or presence of purified MMP-12 C-terminal in a total volume of 100 μl of 10 mmol/L sodium phosphate containing 5% (vol/vol) TSB at 37° C. for 1 hour. Serial dilutions were then spread on agarose plates and the number of CFUs were determined after overnight incubation.

Another data set relates to K. pneumonia. Put plainly: In vitro antimicrobial activity against K. pneumonia. Format: cell-based. Conditions: compared with S. aureus dose response. The protocol: as §1
Recombinant full length human MMP-12 was co-incubated with S. aureus and K. pneumonia for 2 hours. Dose response curve was for recombinant murine carboxy terminal domain against S. aureus and E. coli after one-hour co-incubation.

The next data set relates to E. coli (K1). The data set is described as follows: In vitro antimicrobial activity against E. coli (K1). Format: cell-based. The protocol:
as §2

B1: MMP-9: commercially available full length pro-MMP 9 (protein, UniProt P14780 20-707, looked up)
pro-form: APRQRQSTLVLFPGDLRTNLTDRQLAEEYLYRYGYTRVAEMRGESKSLGPALLLLQKQLSLPETGELDSATLKAMRTPRCGVPDLGRFQTFEGDLKWHHHNITYWIQNYSEDLPRAVIDDAFARAFALWSAVTPLTFTRVYSRDADIVIQFGVAEHGDGYPFDGKDGLLAHAFPPGPGIQGDAHFDDDELWSLGKGVVVPTRFGNADGAACHFPFIFEGRSYSACTTDGRSDGLPWCSTTANYDTDDRFGFCPSERLYTQDGNADGKPCQFPFIFQGQSYSACTTDGRSDGYRWCATTANYDRDKLFGFCPTRADSTVMGGNSAGELCVFPFTFLGKEYSTCTSEGRGDGRLWCATTSNFDSDKKWGFCPDQGYSLFLVAAHEFGHALGLDHSSVPEALMYPMYRFTEGPPLHKDDVNGIRHLYGPRPEPEPRPPTTTTPQPTAPPTVCPTGPPTVHPSERPTAGPTGPPSAGPTGPPTAGPSTATTVPLSPVDDACNVNIFDAIAEIGNQLYLFKDGKYWRFSEGRGSRPQGPFLIADKWPALPRKLDSVFEERLSKKLFFFSGRQVWVYTGASVLGPRRLDKLGLGADVAQVTGALRSGRGKMLLFSGRRLWRFDVKAQMVDPRSASEVDRMFPGVPLDTHDVFQYREKAYFCQDRFYWRVSSRSELNQVDQVGYVTYDILQCPED
modifications: pro-form
In the case of B1, the direct antimicrobial activity entry in the data set with S. aureus (5% LB culture) was “did not demonstrate this direct antimicrobial activity”.

B2: MMP-12: functional full-length recombinant human MMP-12 (macrophage elastase), Genbank NP_002417 (protein, listed as Homo sapiens)
chain: MKFLLILLLQATASGALPLNSSTSLEKNNVLFGERYLEKFYGLEINKLPVTKMKYSGNLMKEKIQEMQHFLGLKVTGQLDTSTLEMMHAPRCGVPDLHHFREMPGGPVWRKHYITYRINNYTPDMNREDVDYAIRKAFQVWSNVTPLKFSKINTGMADILVVFARGAHGDFHAFDGKGGILAHAFGPGSGIGGDAHFDEDEFWTTHSGGTNLFLTAVHEIGHSLGLGHSSDPKAVMFPTYKYVDINTFRLSADDIRGIQSLYGDPKENQRLPNPDNSEPALCDPNLSFDAVTTVGNKIFFFKDRFFWLKVSERPKTSVNLISSLWPTLPSGIEAAYEIEARNQVFLFKDDKYWLISNLRPEPNYPKSIHSFGFPNFVKKIDAAVFNPRFYRTYFFVDNQYWRYDERRQMMDPGYPKLITKNFQGIGPKIDAVFYSKNKYYYFFQGSNQFEYDFLLQRITKTLKSNSWFGC
B2: the bacterial kill with S. aureus (16 μg/ml, 2-hour incubation, 5% LB culture) came to 90%. Also, the direct antimicrobial activity entry with S. aureus (5% LB culture) is “antimicrobial activity”; in the data set on S. aureus (5% LB culture, listed as pro-MMP-12), “direct anti-microbial effect”. Besides, the “antimicrobial activity after heat denaturation” value in the data set with S. aureus is “Neither the denatured MMP-12 or enzymatically inhibited enzyme lost its antimicrobial function”; with S. aureus (listed as Pro-MMP-12), “did not lose its anti-microbial activity”. Moreover, the “antimicrobial activity after enzymatic inhibition” value in the data set on S. aureus is listed as “Neither the denatured MMP-12 or enzymatically inhibited enzyme lost its antimicrobial function”; in the data set with S. aureus (listed as Pro-MMP-12), “did not lose its anti-microbial activity”. In addition, the “antimicrobial activity against K. pneumonia” value in the data set on K. pneumonia is “antimicrobial activity”. In addition, the “antimicrobial activity against E. coli (K1)” value with E. coli (K1) was “antimicrobial activity”.

B3: MMP-2: commercially available full length pro-MMP 2 (protein, UniProt P08253 30-660, looked up)
pro-form: APSPIIKFPGDVAPKTDKELAVQYLNTFYGCPKESCNLFVLKDTLKKMQKFFGLPQTGDLDQNTIETMRKPRCGNPDVANYNFFPRKPKWDKNQITYRIIGYTPDLDPETVDDAFARAFQVWSDVTPLRFSRIHDGEADIMINFGRWEHGDGYPFDGKDGLLAHAFAPGTGVGGDSHFDDDELWTLGEGQVVRVKYGNADGEYCKFPFLFNGKEYNSCTDTGRSDGFLWCSTTYNFEKDGKYGFCPHEALFTMGGNAEGQPCKFPFRFQGTSYDSCTTEGRTDGYRWCGTTEDYDRDKKYGFCPETAMSTVGGNSEGAPCVFPFTFLGNKYESCTSAGRSDGKMWCATTANYDDDRKWGFCPDQGYSLFLVAAHEFGHAMGLEHSQDPGALMAPIYTYTKNFRLSQDDIKGIQELYGASPDIDLGTGPTPTLGPVTPEICKQDIVFDGIAQIRGEIFFFKDRFIWRTVTPRDKPMGPLLVATFWPELPEKIDAVYEAPQEEKAVFFAGNEYWIYSASTLERGYPKPLTSLGLPPDVQRVDAAFNWSKNKKTYIFAGDKFWRYNEVKKKMDPGFPKLIADAWNAIPDNLDAVVDLQGGGHSYFFKGAYYLKLENQSLKSVKFGSIKSDWLGC
modifications: pro-form
For B3, the direct antimicrobial activity entry in the data set with S. aureus (5% LB culture) is recorded as “did not demonstrate this direct antimicrobial activity”.
